Target: EIIA^Glc (UniProt P69783 2-169)
Test: SPR + ELISA

Sequence of EIIA^Glc (P69783 2-169): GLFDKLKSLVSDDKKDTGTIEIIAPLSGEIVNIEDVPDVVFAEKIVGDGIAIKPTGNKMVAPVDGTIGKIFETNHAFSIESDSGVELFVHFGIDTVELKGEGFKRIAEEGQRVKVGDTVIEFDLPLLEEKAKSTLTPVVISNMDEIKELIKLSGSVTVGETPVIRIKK

B1: EIIB^Glc (domain or fragment)
chain: EDATEDAKATGTSEMAPALVAAFGGKENITNLDACITRLRVSVADVSKVDQAGLKKLGAAGVVVAGSGVQAIFGTKSDNLKTEMDEYIRN
Q: Which Kd does the source give for B1 here?
A: > 10 µM

Source: article doi:10.1101/2022.06.06.494913 (bioRxiv, 2022)
